Test results: patent US20170081386A1 (APOGENIX, published 2017)

T1: TRAIL-Receptor 1-Fc (R&D Systems) (UniProt O00220 24-239, limits assumed)
T1 construct: Bought reagent; also called Fc-fusion protein of TRAIL-Receptor 1; not shown: Fc part of the bought fusion
T1 sequence (looked up): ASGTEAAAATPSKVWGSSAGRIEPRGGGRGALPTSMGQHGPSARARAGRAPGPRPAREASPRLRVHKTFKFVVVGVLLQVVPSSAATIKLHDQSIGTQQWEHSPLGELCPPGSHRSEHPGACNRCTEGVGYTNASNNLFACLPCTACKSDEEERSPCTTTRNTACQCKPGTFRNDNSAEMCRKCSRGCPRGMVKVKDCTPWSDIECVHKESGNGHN


Columns and labels:
[1] = target: T1, TRAIL-Receptor 1-Fc (R&D Systems); test: Streptactin-ELISA (FIG. 14A), supernatant immobilized, constant concentration of TRAIL-Receptor 1-Fc
Protocol: (§1) To determine the binding of receptors to constructed ligands, streptactin-coated 96-well microplates were used. Therefore, supernatants from transiently transfected HEK293 cells, mouse sera or purified proteins were immobilized on streptactin-plates (IBA GmbH) for 1-3 hours in PBS. Samples were diluted in ELISA binding/blocking buffer (PBS, 0.1% Tween-20, 20% SuperBlock T20-PBS (Pierce)). Plates were washed with PBS+0.1% Tween-20 and incubated with mouse-anti-TRAIL antibody (Pharmingen, clone RIK-2), TRAIL-Receptor 1-Fc (R&D Systems), TRAIL-Receptor 2-Fc (R&D Systems), TACl-Fc (R&D Systems) or HVEM-Fc (R&D Systems) for one hour at room temperature. Plates were again washed and Fc-proteins were detected with anti-human- or anti-mouse-Fc-specific peroxidase-conjugated antibodies (Sigma). Colour reaction was done by addition of 100 μl per well of TMB substrate (Kem-En-Tec Diagnostics) and the absorbance at 450 nm and 630 nm was determined with an ELISA reader after addition of 25 μl of 25% H₂SO₄ as stop-solution. Values were calculated as 450 nm-630 nm with MS Excel.
The selectivity of TRAIL-Receptor 1 or TRAIL-Receptor 2 towards fusion proteins of SPD/ccSPD and TRAIL, TRAILR1mut and TRAILR2mut was shown by Streptactin-ELISA. Therefore, TRAIL-SPD-fusion proteins in supernatants from transiently transfected HEK293 cells were immobilized on Streptactin coated microplates. Cell supernatant from untransfected cells served as negative control. Specifically bound proteins were detected with constant (A, B) or varying (C, D) concentrations of either TRAIL-Receptor 1-Fc or TRAIL-Receptor 2-Fc. As shown in (A), the ligand TRAILR1mut fused to SPD variants is deteced by TRAIL-Receptor 1, whereas the ligand TRAILR2mut is not. As shown in (B), the ligand TRAILR2mut is preferentially detected by TRAIL-Receptor 2, whereas TRAILR1mut-and TRAIL wild-type constructs are equally well detected. As shown in C, TRAIL-Receptor 1-Fc bound to TRAIL-R1 mut-ASPD and TRAIL-ASPD equally well over the whole receptor titration range, whereas TRAIL-R2mut-ASPD is not detected. As shown in D, TRAIL-Receptor 2-Fc bound to TRAIL-R2mut-ASPD and TRAIL-ASPD equally well over the receptor titration range analyzed, whereas the signal for TRAIL-R1mut-ASPD decreased rapidely with decreasing concentrations of receptor.

[2] = target: T1, TRAIL-Receptor 1-Fc (R&D Systems); test: Streptactin-ELISA, purified trimeric ligand immobilized via Strep-tag II, receptor-Fc detection
Protocol: as §1
Varying concentrations (0-10 microgram/ml) of affinity and SEC purified, trimeric LIGHT-ASPD were used for immobilized via the Strep-tag II on Streptactin-coated microplates. LIGHT-ASPD was then detected in a ELISA set-up using 100 ng/ml of Fc-fusion proteins of the receptors HVEM and TRAIL-Receptor 1, respectively. […]

Row | binding result [1] | binding result [2] | Binder
1 | no binding | – | TRAILR2mut-D-SPD (ligand, it is assembled from the construct description; also called TRAILR2mut (member of the SPD variants)) QRVAAHITGTRGRSNTLSSPNSKNEKALGRKINSWESSRSGHSFLSNLHLRNGELVIHEKGFYYIYSQTQFKFREEIKENTKNDKQMVQYIYKYTSYPDPILLMKSARNSCWSKDAEYGLYSIYQGGIFELKENDRIFVSVTNERLLQMDHEASFFGAFLVGSGLPDVASLRQQVEALQGQVQHLQAAFSQYKKVELFPNGQSVGEKIFKTAGFVKPFTEAQLLCTQAGGQLASPRSAAENAALQQLVVAKNEAAFLSMTDSKTEGKFTYPTGESLVYSNWAPGEPNDDGGSEDCVEIFTNGKWNDRACGEKRLVVCEFGGSPSSSSSSAWSHPQFEK
2 | no binding | – | TRAILR2mut-D-CCSPD (ligand, it is assembled from the construct description; also called TRAILR2mut (member of the SPD variants)) QRVAAHITGTRGRSNTLSSPNSKNEKALGRKINSWESSRSGHSFLSNLHLRNGELVIHEKGFYYIYSQTQFKFREEIKENTKNDKQMVQYIYKYTSYPDPILLMKSARNSCWSKDAEYGLYSIYQGGIFELKENDRIFVSVTNERLLQMDHEASFFGAFLVGSGLPDVASLRQQVEALQGQVQHLQAAFSQYKKVELFPNGPSSSSSSAWSHPQFEK
3 | – | no binding | LIGHT-ASPD (ligand, also called Sp-LIGHT-ASPD; LIGHT fusion protein) EVNPAAHLTGANSSLTGSGGPLLWETQLGLAFLRGLSYHDGALVVTKAGYYYIYSKVQLGGVGCPLGLASTITHGLYKRTPRYPEELELLVSQQSPCGRATSSSRVWWDSSFLGGVVHLEAGEEVVVRVLDERLVRLRDGTRSYFGAFMVGSSGSSGSSGSGLPDVASLRQQVEALQGQVQHLQAAFSQYKKVELFPNGQSVGEKIFKTAGFVKPFTEAQLLCTQAGGQLASPRSAAENAALQQLVVAKNEAAFLSMTDSKTEGKFTYPTGESLVYSNWAPGEPNDDGGSEDCVEIFTNGKWNDRACGEKRLVVCEFGGSPSSSSSSAWSHPQFEK
4 | no binding | – | TRAILR2mut-A-CCSPD (ligand, it is assembled from the construct description; also called TRAILR2mut (member of the SPD variants)) QRVAAHITGTRGRSNTLSSPNSKNEKALGRKINSWESSRSGHSFLSNLHLRNGELVIHEKGFYYIYSQTQFKFREEIKENTKNDKQMVQYIYKYTSYPDPILLMKSARNSCWSKDAEYGLYSIYQGGIFELKENDRIFVSVTNERLLQMDHEASFFGAFLVGSSGSSGSSGSGLPDVASLRQQVEALQGQVQHLQAAFSQYKKVELFPNGPSSSSSSAWSHPQFEK
5 | no binding | – | TRAILR2mut-ASPD (ligand, TRAIL-Receptor 2 selective mutein; homotrimer by SEC; also called Sp-TRAILR2mut-ASPD) QRVAAHITGTRGRSNTLSSPNSKNEKALGRKINSWESSRSGHSFLSNLHLRNGELVIHEKGFYYIYSQTQFKFREEIKENTKNDKQMVQYIYKYTSYPDPILLMKSARNSCWSKDAEYGLYSIYQGGIFELKENDRIFVSVTNERLLQMDHEASFFGAFLVGSSGSSGSSGSGLPDVASLRQQVEALQGQVQHLQAAFSQYKKVELFPNGQSVGEKIFKTAGFVKPFTEAQLLCTQAGGQLASPRSAAENAALQQLVVAKNEAAFLSMTDSKTEGKFTYPTGESLVYSNWAPGEPNDDGGSEDCVEIFTNGKWNDRACGEKRLVVCEFGGSPSSSSSSAWSHPQFEK
